The series can be described thus: label from the status in PepcDB records.

“MFAHQNASFPPRPEGRGGKEAVFRLTVFCIITFSSLICEAMKRAYKYRFYPTTEQAELLAQTFGCVRFVYNSILRWRTDAYYERKEKIGYLQANARLTALKKEPEFAWLNDVSCVPLQQSLRHQQTAFANFFAGRAAYPAFKSKRHKQAAEFTASAFKYRDGKLYMAKNKIPLDVRWSRPLPSVPSTVTISKDAAGRYFVSCLCEFEPASLPITSSMVGIDVGLKDLFVTDTGFRSGNPRHTAKYAARLALLQRRLSKKAKGSKNRAKAHLKVARLHAKIADCRLDALHKATRKLINDNQVVCVESLKVRNMIRNPSLSKAIADASWGELVRQLRYKGEWAGRSVVAIDQFFPSSKRCSCCGFIMKKMPLDVRKWQCPECGTDHDRDVNAARNIKAAGLAVLAHGEPVNPESLKAALEHHHHHH”: the protein production entry is on record as “failed”.
As to “MFALCDVNAFYASCETVFRPDLWGKPVVVLSNNDGCVIARNAEAKALGVKMGDPWFKQKDLFRRCGVVCFSSNYELYADMSNRVMSTLEELSPRVEIYSIDEAFCDLTGVRNCRDLTDFGREIRATVLQRTHLTVGVGIAQTKTLAKLANHAAKKWQRQTGGVVDLSNLERQRKLMSALPVDDVWGIGRRISKKLDAMGIKTVLDLADTDIRFIRKHFNVVLERTVRELRGEPCLQLEEFAPTKQEIICSRSFGERITDYPSMRQAICSYAARAAEKLRSEHQYCRFISTFIKTSPFALNEPYYGNSASVKLLTPTQDSRDIINAATRSLDAIWQAGHRYQKAGVMLGDFFSQGVAQLNLFDDNAPRPGSEQLMTVMDTLNAKEGRGTLYFAGQGIQQQWQMKRAMLSPRYTTRSSDLLRVK”, the protein production entry was “failed”.
With “MFALEELPRIPDFTERAICELFELYASIESVQLPPQSSDATNSSSATAPGNIFSAERGPRYLGPRALVRFFTELGVDMRSLAALAFAWLGRWQYPCHCREEGFARGVRYALWALDRRQHNEPRRWEQVQATCSTLLETSIWPRESTALFERLRSAFPDAVLSYTQRSAEAALDFYLFAFDLNRQSPYRRSLSLTDARYLWKQFLSESCYLATPASPGTPAGVANQPWRYLEHFDAYLESRCGMAGTIISRDTWYWVLMFARETQVAGSSFFANYNQGDAWPVLLDGFVEYLRENKLLSS” the entry was “not failed”; with “MFALVLAAGRSRRFDGDKRKALLPCGRTLLTACLETAGKVFTETGVVLREDDEVQTLGIPSKVTIIRCKHADLGMGHSLAAGIAAALNSSADAVAILLADMPWIEPQTLRDLARLADPQRIALPMHEGQRGHPVIIGRRFWPRLLALEGDQGAKALITNNPAFCDVMNCDDPGVLRDADTRSALAIACRQHLTAGRDLEHHHHHH”, “failed”.
For “MFANKILTEKDTDQIRFSILASGSSGNATLVETGDQKILIDCGLSGKKMEGLFAQVGRDMNDLDAILITHEHSDHIKGLGVLARKYKLPIYANAKTWKAMDNMIGEVSSDQKFQFDMETVKNFGSMQVESFGVSHDAIEPMFYIFHKGNKKFVMITDTGYVSDRMKGHIAGADAYLFESNHDVEMLRMGRYPWNVKRRILGDEGHVSNEDAAIAMSEVITDQTKRIYLGHLSKDNNMKELARMSVTQTLMAEGIDVGGKLEIFDTDPDNATSIFTILEHHHHHH”, the protein production result was “failed”.
With “MFASCHCVPRGRRTMKMIHFRSSSVKSLSQEMRCTIRLLDDSEISCHIQRETKGQFLIDHICNYYSLLEKDYFGIRYVDPEKQRHWLEPNKSIFKQMKTHPPYTMCFRVKFYPHEPLKIKEELTRYLLYLQIKRDIFHGRLLCSFSDAAYLGACIVQAELGDYDPDEHPENYISEFEIFPKQSQKLERKIVEIHKNELRGQSPPVAEFNLLLKAHTLETYGVDPHPCKDSTGTTTFLGFTAAGFVVFQGNKRIHLIKWPDVCKLKFEGKTFYVIGTQKEKKAMLAFHTSTPAACKHLWKCGVENQAFYKYAKSSQIKTVSSSKIFFKGSRFRYSGKVAKEVVEASSKIQREPPEVHRANITQSRSSHSLNKQLIINMEPLQPLLPSPSEQEEELPLGEGVPLPKEENISAPLISSSPVKAAREYEDPPSEEEDKIKEEPLTISELVYNPSASLLPTPVDDDEIDMLFDCPSRLELEREDTDSFEDLEADENAFLIAEEEELKEARRALSWSYDILTGHIRVNPLVKSFSRLLVVGLGLLLFVFPLLLLLLESGIDLSFLCEIRQTPEFEQFHYEYYCPLKEWVAGKVHLILYMLGCS” the entry was “failed”.

For the origin of these results see a protein production outcome set (Wang et al. 2014).
